From FireProtDB (doi:10.1002/pro.5560041207) come the findings set out here.

The conditions of this data set: Cereibacter sphaeroides, pH 7.4, 23 °C, Urea, Fluorescence, whole UniProt chain shown.

B1: Thioredoxin wild type, P08058 (protein)
chain: MSTVPVTDATFDTEVRKSDVPVVVDFWAEWCGPCRQIGPALEELSKEYAGKVKIVKVNVDENPESPAMLGVRGIPALFLFKNGQVVSNKVGAAPKAALATWIASAL
As for B1, the unfolding free energy was found to be 8.2 kcal/mol (Potassium phosphate 20 mM) and 8.13 kcal/mol (Potassium phosphate 20mM).
